What all share (details): both partners purified
For assay [1], the target named is trimeric SARS-CoV-2 S ectodomain (insect cell-expressed) (SARS-CoV-2 Wuhan-Hu-1 (MN908947), UniProt P0DTC2, stabilised). The assay is described as follows: SPR.
Assay [2] has the same target. Put plainly: SPR. This is another data set of the same source.
Assay [3] addresses SARS-CoV-2 S HexaPro (SARS-CoV-2 Wuhan-Hu-1, HexaPro, stabilised). Put plainly: cryo-EM structure.

B1: pT1679 Fab (Fab, V domains shown)
VH: QVQLVQSGAEVKKPGSSVKVSCRASGGTFSSYAISWVRQAPGQGLEWMGTIIPVFGAPDYAQKFQGRVTITADESTSTAYMEVRSLRSEDTAVYYCARDASPYYYDRSGYPRWAEDLHHWGQGTMVTVSS
VL: QSVLTQPPSVSGAPGQRVTISCTGSSSNIGAGYDVHWYQQLPGTAPKLLIYGNSNRPSGVPDRFSGSKSGTSGSLAISGLQPEDEADYYCQSYDSSLSGSIFGGGTKLTVL
notes: also called Fab fragment of pT1679; source: Drosophila S2 cells, purified (Strep-Tactin XT, SEC)
For B1, the “fold higher affinity than for the RBD” value in assay [1] was roughly 3 fold.

B2: pT1679 Fab (Fab, V domains shown)
VH: B1 VH
VL: B1 VL
notes: source: Drosophila S2 cells, purified (Strep-Tactin XT, SEC)
For B2, in assay [2], the equilibrium dissociation constant (Kd) turned out to be 0.13 nM, the koff amounted to 0.00012 s⁻¹ and the kon was 900000 M⁻¹ s⁻¹. Further, the “stoichiometry N” value in assay [3] is 3 pT1679 molecules per trimeric S protein.

Values taken from paper PMC12421856 (mBio, 2025).
